# Assay results: patent US20240101645A1 (HENRY M JACKSON FOUNDATION FOR THE ADVANCEMENT OF MILITARY …, published 2024)
# Positions count from the first letter of the chain named.
# T1: HCoV-HKU1 spike antigens (bead panel) (HCoV-HKU1, UniProt Q5MQD0 13-1300)
# T1 sequence: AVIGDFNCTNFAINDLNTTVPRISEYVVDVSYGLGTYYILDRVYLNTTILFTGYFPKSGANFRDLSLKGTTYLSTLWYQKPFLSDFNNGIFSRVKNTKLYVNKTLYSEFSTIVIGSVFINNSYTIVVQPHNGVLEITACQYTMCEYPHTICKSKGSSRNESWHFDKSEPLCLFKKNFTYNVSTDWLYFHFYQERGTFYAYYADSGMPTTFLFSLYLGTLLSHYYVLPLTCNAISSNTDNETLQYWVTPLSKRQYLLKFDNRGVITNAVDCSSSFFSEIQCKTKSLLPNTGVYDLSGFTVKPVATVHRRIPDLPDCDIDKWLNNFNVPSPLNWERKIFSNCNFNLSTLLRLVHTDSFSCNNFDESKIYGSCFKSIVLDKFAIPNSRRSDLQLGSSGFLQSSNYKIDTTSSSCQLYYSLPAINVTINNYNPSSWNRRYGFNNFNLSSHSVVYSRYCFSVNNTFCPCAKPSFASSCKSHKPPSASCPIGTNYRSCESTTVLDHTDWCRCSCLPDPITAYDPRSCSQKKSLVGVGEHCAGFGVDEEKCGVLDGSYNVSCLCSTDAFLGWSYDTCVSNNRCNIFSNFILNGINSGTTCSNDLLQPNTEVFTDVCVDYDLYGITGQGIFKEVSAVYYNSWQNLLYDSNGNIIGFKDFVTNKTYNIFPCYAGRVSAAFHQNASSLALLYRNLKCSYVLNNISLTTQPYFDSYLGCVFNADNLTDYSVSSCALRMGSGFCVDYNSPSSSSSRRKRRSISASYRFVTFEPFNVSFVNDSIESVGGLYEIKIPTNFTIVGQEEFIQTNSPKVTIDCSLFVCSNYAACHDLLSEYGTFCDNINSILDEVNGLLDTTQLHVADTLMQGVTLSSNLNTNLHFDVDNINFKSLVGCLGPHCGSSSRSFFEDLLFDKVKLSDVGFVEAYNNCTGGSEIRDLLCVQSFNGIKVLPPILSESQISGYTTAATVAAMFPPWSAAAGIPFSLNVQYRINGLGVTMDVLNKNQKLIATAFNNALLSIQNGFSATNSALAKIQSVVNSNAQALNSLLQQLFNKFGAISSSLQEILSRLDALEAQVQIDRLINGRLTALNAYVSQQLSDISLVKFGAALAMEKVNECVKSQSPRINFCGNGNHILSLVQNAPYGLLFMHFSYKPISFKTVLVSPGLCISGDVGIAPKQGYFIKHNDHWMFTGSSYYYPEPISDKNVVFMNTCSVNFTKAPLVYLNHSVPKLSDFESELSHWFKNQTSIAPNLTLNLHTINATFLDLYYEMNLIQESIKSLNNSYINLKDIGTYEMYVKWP
# T2: HCoV-OC43 spike antigens (bead panel) (HCoV-OC43, UniProt P36334 14-1297)
# T2 sequence: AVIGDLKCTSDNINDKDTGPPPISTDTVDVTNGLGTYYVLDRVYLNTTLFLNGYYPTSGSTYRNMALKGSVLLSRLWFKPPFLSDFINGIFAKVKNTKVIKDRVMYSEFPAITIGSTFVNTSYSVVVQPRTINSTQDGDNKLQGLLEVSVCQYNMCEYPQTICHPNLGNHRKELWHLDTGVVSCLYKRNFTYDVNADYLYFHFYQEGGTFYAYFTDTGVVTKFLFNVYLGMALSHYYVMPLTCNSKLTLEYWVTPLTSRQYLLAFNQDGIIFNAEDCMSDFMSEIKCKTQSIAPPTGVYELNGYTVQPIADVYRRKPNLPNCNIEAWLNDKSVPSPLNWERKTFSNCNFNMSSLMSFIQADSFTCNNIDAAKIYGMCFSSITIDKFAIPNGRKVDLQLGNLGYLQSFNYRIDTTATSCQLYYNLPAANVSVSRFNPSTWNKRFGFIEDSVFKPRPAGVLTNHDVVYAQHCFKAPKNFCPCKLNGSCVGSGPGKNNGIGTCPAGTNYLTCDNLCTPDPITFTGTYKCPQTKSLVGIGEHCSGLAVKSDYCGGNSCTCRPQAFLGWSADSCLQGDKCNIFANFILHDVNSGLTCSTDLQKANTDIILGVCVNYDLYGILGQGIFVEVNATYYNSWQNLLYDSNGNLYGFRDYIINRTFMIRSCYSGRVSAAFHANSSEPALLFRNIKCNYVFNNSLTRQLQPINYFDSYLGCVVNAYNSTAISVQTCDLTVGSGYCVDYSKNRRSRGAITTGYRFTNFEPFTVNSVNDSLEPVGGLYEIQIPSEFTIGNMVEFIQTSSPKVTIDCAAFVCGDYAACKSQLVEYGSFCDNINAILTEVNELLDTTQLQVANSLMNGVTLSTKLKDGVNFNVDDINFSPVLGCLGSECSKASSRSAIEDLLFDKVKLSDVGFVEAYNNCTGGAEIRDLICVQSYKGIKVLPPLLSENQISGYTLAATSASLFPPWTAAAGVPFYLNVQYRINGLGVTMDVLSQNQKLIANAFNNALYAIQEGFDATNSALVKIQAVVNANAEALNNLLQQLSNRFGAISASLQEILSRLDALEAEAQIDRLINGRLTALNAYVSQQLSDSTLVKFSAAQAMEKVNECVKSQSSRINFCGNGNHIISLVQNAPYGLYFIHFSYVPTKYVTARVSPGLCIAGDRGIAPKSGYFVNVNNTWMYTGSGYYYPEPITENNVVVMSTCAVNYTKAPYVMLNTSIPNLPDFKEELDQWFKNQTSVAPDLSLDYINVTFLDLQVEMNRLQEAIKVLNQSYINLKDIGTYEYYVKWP
# B1: COV_3077 (antibody, V domains shown)
# VH: QVQLQESGPGLVKPSETLSLTCAVSGYSISSGYYWGWIRQPPGKGLEWIGSIYHSGSTYYNPSLKSRVTISVDTSKNQFSLKLSSVTAADTAVYYCARALYDAFDIWGQGTMVTVSS
# VL: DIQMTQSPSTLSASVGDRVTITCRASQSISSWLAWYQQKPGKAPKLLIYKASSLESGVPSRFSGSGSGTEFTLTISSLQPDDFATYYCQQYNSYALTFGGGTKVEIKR
# notes: human IgG1
# B2: COV_2037 (antibody, V domains shown)
# VH: QVQLVQSGAEVKKPGASVKVSCKVSGYTLTELSMHWVRQAPGKGLEWMGGFDPEDAETIYAQKFQGRVTMTEDTSTDTAYMELSSLRSEDTAVYYCATAGAITGTPTNYSYYYGMDFWGQGTTVTVSS
# VL: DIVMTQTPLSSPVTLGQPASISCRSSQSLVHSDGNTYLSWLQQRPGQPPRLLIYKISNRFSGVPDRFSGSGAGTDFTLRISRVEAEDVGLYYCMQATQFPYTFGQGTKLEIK
# notes: human IgG1
# B3: COV_2028 (antibody, V domains shown)
# VH: QVQLQESGPGLVKPSGTLSLTCVVSGGSISSSNWWSWVRQPPGKGLEWIGEIYHSGSTNYNPSLKSRVTISVDKSKNQFSLRLTSVTAADTAVYYCARGWNYDYWGQGTLVTVSS
# VL: QSALTQPASVSGSPGQSITIACTGTSSDVGSYNLVSWYQQHPGKAPKLMIYEVSKRPSGLSNRFSGSKSGNTASLTISGLQAEDEADYYCYSYAGSSTWVFGGGTKLTVL
# notes: human IgG1
# B4: COV_2014 (antibody, V domains shown)
# VH: QVQLVQSGAEVKKPGASVKVSCKVSGYTLTELSMHWVRQAPGKGLEWMGGFDPEDGETIYAQKFQGRVTMTEDTSTDTAYMELSSLRSEDTAVYYCATGKINYYDSSGYYGTFDYWGQGTLVTVSS
# VL: AIQLTQSPSSLSASVGDRVTITCRASQGISSYLAWYQQKPGKAPKLLIYAASTLQSGVPSRFSGSGSGTDFTLTISSLQPEDFATYYCQQLNSYHLTFGQGTRLEIK
# notes: human IgG1
# B5: COV_2056 (SEQ ID NO:792/797) (antibody, V domains shown)
# VH: EVQLVESGGGVVQPGRSLRLSCAASGFTFSIYGMHWVRQAPGKGLEWVALISYDGTNKYYADSVKGRFSISRDDSKNTLYLQMNSLRPEDTAVYYCAKVLMMGDSSGFSLGDAFDIWGQGTMVTVSS
# VL: DIQMTQSPSSVSASVGDRVTITCRASQGISNWLAWYQQKPGKAPKLLIYAASSLQSGVPSRFSGSVSGTDFTLTISSLQPEDFATYYCQQANSFPLTFGGGTKVDIKR
# B6: COV_2174 (antibody, V domains shown)
# VH: EVQLAESGGGLVKPGGSLRLSCAASGFTFSDYYMSWIRQAPGKGLEWVSYISSSGSTIYYADSVKGRFTISRDNAKNSLYLQMNSLRAEDTAVYYCARDWSVVVVPAAPAVDVWGQGTTVTVSS
# VL: B5 VL with V11L, W32Y, Y36F, L46S, R61K, V66G, A91Y, F94Y, D105E
# notes: human IgG1
# B7: COV_2172 (SEQ ID NO:872/877) (antibody, V domains shown)
# VH: EVQLVESGGGVVQPGRSLRLSCAPSGFTFSTYAMHWVRQAPGKGLEWVAVISYDGSIKYYADSVKGRFTISRDNTMNTVFLQMNSLRAEDTAVYFCAKGGERWELFTSFDYWGQGTQVTVSS
# VL: QSALTQPRSVSGSPGQSVTISCTGTSSDVGGYNYVSWYQQHPGKAPKLMIYDVSKRPSGVPDRFSGSKSGNTASLTISGLQAEDEADYYCCSYAGSYTFVFGGGTKLTVLG
# B8: COV_2039 (antibody, V domains shown)
# VH: QVQLVQSGAEVKKPGASVKVSCKVSGYMLIELSMHWVRQAPGKGLEWMGGFDPEDAETIYAQEFQGRVTMTEDTSTDTAYMELSSLRSEDTAVYYCTTGPAVTNRPADYWGPGTLVTVSS
# VL: QSVLTQPPSVSGAPGQRVTISCTGSSSNIGASYDVHWYQQLPGTAPKLLIYANSNRPSGVPDRFSGSKSGTSASLAITGLQAEDEADYYCQSYDSSLSYSVVFGGGTKLTVL
# notes: human IgG1
# B9: COV_2025 (antibody, V domains shown)
# VH: QVHLVQSGAEVKKPGASVKVSCKVSGYTLVELSVHWVRQAPAKGLEWIGGFDPEDGETIYAQKFQGRVTMTEDTSTDTAYMELTNLRSEDTAVYYCVTSQPFVSPNWFDPWGQGTLVTVSS
# VL: QSALTQPASVSGSPGQSITISCTGTSRDVGAYNYVSWYQQHPGKAPKLMIYEVTTRPSGVSNRFSGSKSGNTASLTISGLQAEDEADYYCSSYTGSRTLVFGTGTKVTVL
# notes: human IgG1
# B10: COV_2027 (antibody, V domains shown)
# VH: EVQLVESGGGLIQPGGSLRLSCAASGFSVSTNYMSWVRQAPGKGLEWVSIIYSGGGTYYADSVKGRFTISRDTSENTLYLQMNSLRAEDTAVYYCASFLVGATGQPWYWGQGTLVTVSS
# VL: not shown
# notes: human IgG1
# Target: SARS-CoV-2 S on pseudovirions (Wuhan Hu-1 / IL1/2020, last 18 amino acids removed) (SARS-CoV-2, UniProt P0DTC2 14-1273)
# Assay: cell-based or functional assay
Binder,"Mean IC50, pSV neutralization","Mean IC80, pSV neutralization"
B1,≥ 25 µg/ml,≥ 25 µg/ml
B2,0.07 µg/ml,≥ 25 µg/ml
B3,≥ 25 µg/ml,≥ 25 µg/ml
B4,≥ 25 µg/ml,≥ 25 µg/ml
B5,7.46 µg/ml,≥ 25 µg/ml
B6,0.502 µg/ml,2.04 µg/ml
B7,3.99 µg/ml,≥ 25 µg/ml
B8,0.01 µg/ml,1.8 µg/ml
B9,0.02 µg/ml,0.49 µg/ml
B10,0.16 µg/ml,0.45 µg/ml

# Target: T1, HCoV-HKU1 spike antigens (bead panel)
# Assay: multiplex bead assay
row,Binder,binding result
1,B1,no binding
2,B2,no binding
3,B3,no binding
4,B4,no binding
5,B5,no binding
6,B6,no binding
7,B7,no binding
8,B8,no binding
9,B9,no binding
10,B10,no binding

# Target: T2, HCoV-OC43 spike antigens (bead panel)
# Assay: multiplex bead assay
row,Binder,binding result
1,B1,no binding
2,B2,no binding
3,B3,no binding
4,B4,no binding
5,B5,no binding
6,B6,no binding
7,B7,no binding
8,B8,no binding
9,B9,no binding
10,B10,no binding

# Target: SARS-CoV-1 spike antigens (bead panel) (SARS-CoV-1, UniProt P59594 14-1195)
# Assay: multiplex bead assay
row,Binder,binding result
1,B1,no binding
2,B2,no binding
3,B3,no binding
4,B4,no binding
5,B5,no binding
6,B6,no binding
7,B7,no binding
8,B8,no binding
9,B9,no binding
10,B10,no binding
